Measured values reported in patent US20250154261A1 (published 2025).
Where two headings read alike, the source gives them in different places.

What was measured:
Human CD33 S128N = Human CD33 S128N (human, UniProt P20138 18-259); assay: SPR captured Fab
Human CD33 R69G [1] = molecular target: T1, Human CD33 R69G (human, UniProt P20138 18-259); assay: SPR captured Fab
Human CD33 R69G [2] = molecular target: T1, Human CD33 R69G; assay: SPR captured Fab; remark: listed apart in the source
[3] = molecular target: T2, human CD33 (antigen of the BLI measurement, Table 11) (human, UniProt P20138 18-259, limits assumed); assay: BLI, IgG on AHC
T2 construct: 100 nM antigen in solution; construct not described; whole entry named

V domain of human CD33 [4] = molecular target: T3, V domain of human CD33 (human, UniProt P20138 18-139, limits assumed); assay: SPR captured Fab
T3 construct: Whole entry named; also called Human CD33 V domain

V domain of human CD33 [5] = molecular target: T3, V domain of human CD33; assay: SPR captured Fab; remark: listed apart in the source

Binder | Kd (Human CD33 S128N) | koff (Human CD33 S128N) | kon (Human CD33 S128N) | Kd (Human CD33 R69G [1]) | koff (Human CD33 R69G [1]) | kon (Human CD33 R69G [1]) | other results
ADI-11815 Fab (Fab, V domains shown, Fab fragment; also called Ab7) VH: QVQLVQSGAEVKKPGASVKVSCKASGYTFGTYYMHWVRQAPGQGLEWMGIINPSRGSTVYAQKFQGRVTMTRDTSTSTVYMELSSLRSEDTAVYYCARGAGYDDEDMDVWGKGTTVTVSS VL: DIQMTQSPSSVSASVGDRVTITCRASQGIDSWLAWYQQKPGKAPKLLIYAASSLQSGVPSRFSGSGSGTDFTLTISSLQPEDFATYYCQQAHSYPLTFGGGTKVEIK |  |  |  | 4.34 nM | 0.0013 s⁻¹ | 300000 M⁻¹ s⁻¹ | Kd (Human CD33 R69G [2]): 4.34 nM; koff (Human CD33 R69G [2]): 0.0013 s⁻¹; kon (Human CD33 R69G [2]): 300000 M⁻¹ s⁻¹
ADI-10161 Fab (Fab, V domains shown, Fab fragment; also called Ab16) VH: EVQLVESGGGLVQPGGSLRLSCAASGFTFSSYWMSWVRQAPGKGLEWVANINQDGSEKYYVDSVKGRFTISRDNAKNSLYLQMNSLRAEDTAVYYCAREGGDSWYHAFDIWGQGTMVTVSS VL: DIQMTQSPSSVSASVGDRVTITCRASQGISSWLAWYQQKPGKAPKLLIYAASNLQSGVPSRFSGSGSGTDFTLTISSLQPEDFATYYCQQKLSLPLTFGGGTKVEIK | 63.6 nM | 0.0385 s⁻¹ | 605000 M⁻¹ s⁻¹ | 48.9 nM | 0.0307 s⁻¹ | 629000 M⁻¹ s⁻¹ | 
ADI-11812 Fab (Fab, V domains shown, Fab fragment; also called Ab24) VH: QVQLVQSGAEVKKPGASVKVSCKASGYTFEIYYMHWVRQAPGQGLEWMGIINPSSGSTVYAQKFQGRVTMTRDTSTSTVYMELSSLRSEDTAVYYCARGAGYDDEDMDVWGKGTTVTVSS VL: DIQMTQSPSSVSASVGDRVTITCRASQGIDSWLAWYQQKPGKAPKLLIYAASSLQSGVPSRFSGSGSGTDFTLTISSLQPEDFATYYCQQAHSYPLTFGGGTKVEIK | 2.01 nM | 0.00112 s⁻¹ | 556000 M⁻¹ s⁻¹ | 6.74 nM | 0.00228 s⁻¹ | 338000 M⁻¹ s⁻¹ | 
ADI-11807 Fab (Fab, V domains shown, Fab fragment; also called Ab5; I07) VH: EVQLVESGGGLVQPGGSLRLSCAASGFTFGSYWMSWVRQAPGKGLEWVATIKQDGSEKSYVDSVKGRFTISRDNAKNSLYLQMNSLRAEDTAVYYCARPLNAGELDVWGQGTMVTVSS VL: DIQMTQSPSTLSASVGDRVTITCRASQSISSWLAWYQQKPGKAPKLLIYEASSLESGVPSRFSGSGSGTEFTLTISSLQPDDFATYYCQQSQSYPPITFGGGTKVEIK |  |  |  | 0.43 nM | 0.000259 s⁻¹ | 597000 M⁻¹ s⁻¹ | 
ADI-10159 IgG (antibody, V domains shown, IgG; also called Ab1; G59) VH: EVQLVESGGGLVQPGGSLRLSCAASGFTFSSYGMSWVRQAPGKGLEWVANIKQDGSEKYYVDSVKGRFTISRDNAKNSLYLQMNSLRAEDTAVYYCAREGGPYYDSSGYFVYYGMDVWGQGTTVTVSS VL: DIQMTQSPSTLSASVGDRVTITCRASQSISSWLAWYQQKPGKAPKLLIYDASSLESGVPSRFSGSGSGTEFTLTISSLQPDDFATYYCQQYESFPTFGGGTKVEIK |  |  |  |  |  |  | Kd [3]: 0.58 nM; koff [3]: 0.0002 s⁻¹
ADI-11776 Fab (Fab, V domains shown, Fab fragment; also called Ab3; H76) VH: EVQLLESGGGLVQPGGSLRLSCAASGFTFSKYTMSWVRQAPGKGLEWVSAIVGSGESTYFADSVKGRFTISRDNSKNTLYLQMNSLRAEDTAVYYCAREGGPYYDSSGYFVYYGMDVWGQGTTVTVSS VL: DIQMTQSPSTLSASVGDRVTITCRASQSISSWLAWYQQKPGKAPKLLIYKASSLESGVPSRFSGSGSGTEFTLTISSLQPDDFATYYCQQYDDLPTFGGGTKVEIK |  |  |  | 0.22 nM | 0.000426 s⁻¹ | 1.98e+06 M⁻¹ s⁻¹ | koff (V domain of human CD33 [4]): 0.0143 s⁻¹; koff (V domain of human CD33 [5]): 0.0143 s⁻¹
ADI-11828 Fab (Fab, V domains shown, Fab fragment; also called Ab27) VH: EVQLVESGGGLVQPGGSLRLSCAASGFTFSSYWMSWVRQAPGKGLEWVANINQDGSEVYYVDSVKGRFTISRDNAKNSLYLQMNSLRAEDTAVYYCARDVGPGIAYQGHFDYWGQGTLVTVSS VL: DIQMTQSPSSLSASVGDRVTITCRASQSIYYYLNWYQQKPGKAPKLLIYAASSRQSGVPSRFSGSGSGTDFTLTISSLQPEDFATYYCQQVYDTPLTFGGGTKVEIK | 5.41 nM | 0.00742 s⁻¹ | 1.37e+06 M⁻¹ s⁻¹ | 6.03 nM | 0.007 s⁻¹ | 1.16e+06 M⁻¹ s⁻¹ | 
ADI-11830 Fab (Fab, V domains shown, Fab fragment; also called Ab9) VH: EVQLVESGGGLVQPGGSLRLSCAASGFTFSSYWMSWVRQAPGKGLEWVANINTDGSEVYYVDSVKGRFTISRDNAKNSLYLQMNSLRAEDTAVYYCARDVGPGIAYQGHFDYWGQGTLVTVSS VL: DIQMTQSPSSLSASVGDRVTITCRASQVIYSYLNWYQQKPGKAPKLLIYAASSLKSGVPSRFSGSGSGTDFTLTISSLQPEDFATYYCQQVYDTPLTFGGGTKVEIK |  |  |  | 2.94 nM | 0.00663 s⁻¹ | 2.27e+06 M⁻¹ s⁻¹ | 
ADI-10157 Fab (Fab, V domains shown, Fab fragment; also called Ab13) VH: QVQLQESGPGLVKPSETLSLTCTVSGGSISSYYWSWIRQPPGKGLEWIGSIYYSGSTNYNPSLKSRVTISVDTSKNQFSLKLSSVTAADTAVYYCARVGGVYSTIETYGMDVWGQGTTVTVSS VL: EIVMTQSPATLSVSPGERATLSCRASQSVSSNLAWYQQKPGQAPRLLIYGASTRATGIPARFSGSGSGTEFTLTISSLQSEDFAVYYCQQYTVYPPTFGGGTKVEIK | 163 nM | 0.00924 s⁻¹ | 56500 M⁻¹ s⁻¹ | 17.8 nM | 0.0287 s⁻¹ | 1.56e+06 M⁻¹ s⁻¹ | 

More lines, main results first:

Kd (Human CD33 S128N) | koff (Human CD33 S128N) | kon (Human CD33 S128N) | Kd (Human CD33 R69G [1]) | koff (Human CD33 R69G [1]) | kon (Human CD33 R69G [1]) | Binder | other results
0.809 nM | 0.00059 s⁻¹ | 662000 M⁻¹ s⁻¹ |  |  |  | ADI-11802 Fab (Fab, V domains shown, Fab fragment; also called Ab23) VH: QVQLVQSGAEVKKPGASVKVSCKASGYTFSGYYMHWVRQAPGQGLEWMGMINPYGGSTRYAQKFQGRVTMTRDTSTSTVYMELSSLRSEDTAVYYCAREAADGFVGERYFDLWGRGTLVTVSS VL: not shown | 
29.5 nM | 0.0284 s⁻¹ | 963000 M⁻¹ s⁻¹ |  |  |  | ADI-11839 Fab (Fab, V domains shown, Fab fragment; also called Ab28) VH: QVQLVQSGAEVKKPGASVKVSCKASGYTFSNYYMHWVRQAPGQGLEWMGWINPFSGGTRYAQKFQGRVTMTRDTSTSTVYMELSSLRSEDTAVYYCARDVGSSAYYYMDVWGKGTTVTVSS VL: DIQMTQSPSSVSASVGDRVTITCEASKGISSWLAWYQQKPGKAPKLLIYAASDLQSGVPSRFSGSGSGTDFTLTISSLQPEDFATYYCQQAFLFPPTFGGGTKVEIK | 
 |  |  | 0.22 nM | 0.000179 s⁻¹ | 815000 M⁻¹ s⁻¹ | ADI-11809 Fab (Fab, V domains shown, Fab fragment; also called Ab6) VH: EVQLVESGGGLVQPGGSLRLSCAASGFTFPSYWMSWVRQAPGKGLEWVATIKRDGSEKGYVDSVKGRFTISRDNAKNSLYLQMNSLRAEDTAVYYCARPLNAGELDVWGQGTMVTVSS VL: DIQMTQSPSTLSASVGDRVTITCRASQSISSWLAWYQQKPGKAPKLLIYEASSLESGVPSRFSGSGSGTEFTLTISSLQPDDFATYYCQQSQSYPPITFGGGTKVEIK | 
 |  |  | 0.09 nM | 0.000244 s⁻¹ | 2.78e+06 M⁻¹ s⁻¹ | ADI-11819 Fab (Fab, V domains shown, Fab fragment; also called Ab8) VH: EVQLVESGGGLVKPGGSLRLSCAASGFTFSSYAMSWVRQAPGKGLEWVSSISSSSEGIYYADSVKGRFTISRDNAKNSLYLQMNSLRAEDTAVYYCAREGGPYYDSSGYFVYYGMDVWGQGTTVTVSS VL: DIQMTQSPSTLSASVGDRVTITCRASNSISSWLAWYQQKPGKAPKLLIYEASSTKSGVPSRFSGSGSGTEFTLTISSLQPDDFATYYCQQYDDLPTFGGGTKVEIK | 
 |  |  | 5.68 nM | 0.00243 s⁻¹ | 426000 M⁻¹ s⁻¹ | ADI-10159 Fab (Fab, V domains shown, Fab fragment; also called Ab1; G59) VH: EVQLVESGGGLVQPGGSLRLSCAASGFTFSSYGMSWVRQAPGKGLEWVANIKQDGSEKYYVDSVKGRFTISRDNAKNSLYLQMNSLRAEDTAVYYCAREGGPYYDSSGYFVYYGMDVWGQGTTVTVSS VL: DIQMTQSPSTLSASVGDRVTITCRASQSISSWLAWYQQKPGKAPKLLIYDASSLESGVPSRFSGSGSGTEFTLTISSLQPDDFATYYCQQYESFPTFGGGTKVEIK | 
 |  |  | 0.67 nM | 0.00205 s⁻¹ | 3.07e+06 M⁻¹ s⁻¹ | ADI-11835 Fab (Fab, V domains shown, Fab fragment; also called Ab10; 135 (so in the source)) VH: QLQLQESGPGLVKPSETLSLTCTVSGGSISSTDYYWGWIRQPPGKGLEWIGSIGYSGTYYNPSLKSRVTISVDTSKNQFSLKLSSVTAADTAVYYCARETAHDVHGMDVWGQGTTVTVSS VL: EIVLTQSPATLSLSPGERATLSCRASHSVYSYLAWYQQKPGQAPRLLIYDASNRATGIPARFSGSGSGTDFTLTISSLEPEDFAVYYCQQYDNLPTFGGGTKVEIK | 
279 nM | 0.0539 s⁻¹ | 193000 M⁻¹ s⁻¹ | 113 nM | 0.035 s⁻¹ | 308000 M⁻¹ s⁻¹ | ADI-10164 Fab (Fab, V domains shown, Fab fragment; also called Ab18) VH: QVQLQESGPGLVKPSETLSLTCAVSGYSISSGYYWGWIRQPPGKGLEWIGSIYHSGSTNYNPSLKSRVTISVDTSKNQFSLKLSSVTAADTAVYYCARLPPWFGFSYFDLWGRGTLVTVSS VL: EIVLTQSPATLSLSPGERATLSCRASQSVSSYLAWYQQKPGQAPRLLIYDASNRATGIPARFSGSGSGTDFTLTISSLEPEDFAVYYCQQVDNYPPTFGGGTKVEIK | 
85.7 nM | 0.0673 s⁻¹ | 786000 M⁻¹ s⁻¹ | 63.7 nM | 0.0533 s⁻¹ | 836000 M⁻¹ s⁻¹ | ADI-10160 Fab (Fab, V domains shown, Fab fragment; also called Ab15) VH: EVQLVESGGGLVQPGGSLRLSCAASGFTFSSYWMSWVRQAPGKGLEWVANINQDGSEKYYVDSVKGRFTISRDNAKNSLYLQMNSLRAEDTAVYYCAREANYYGNVGDDYWGQGTLVTVSS VL: not shown | 
3.09 nM | 0.00649 s⁻¹ | 2.1e+06 M⁻¹ s⁻¹ | 3.74 nM | 0.00695 s⁻¹ | 1.86e+06 M⁻¹ s⁻¹ | ADI-11825 Fab (Fab, V domains shown, Fab fragment; also called Ab25) VH: EVQLVESGGGLVQPGGSLRLSCAASGFTFGGYWMSWVRQAPGKGLEWVANINQDGSEEYYVDSVKGRFTISRDNAKNSLYLQMNSLRAEDTAVYYCAREANYYGNVGDDYWGQGTLVTVSS VL: DIQMTQSPSSLSASVGDRVTITCRASQSIYNYLNWYQQKPGKAPKLLIYAASNLHSGVPSRFSGSGSGTDFTLTISSLQPEDFATYYCQQAFHVPITFGGGTKVEIK | 
